Consider seven substances from US20240376218A1.

The target in one assay is human CCR8 (human) (UniProt P51685). Nature of the assay: cell-based or functional assay.
In assay [1] the target is human CCR8 tagged with ProLink (human). Nature of the assay: cell-based or functional assay.
The target in another assay is human CCR4 (human) (UniProt P51679). Nature of the assay: cell-based or functional assay.
The target of assay [2] is human CCR4 (P51679_CCR4_HUMAN) (human) (UniProt P51679). The experiment in a line: cell-based or functional assay.
Chain of human CCR4 (P51679_CCR4_HUMAN) (human) (P51679 whole entry): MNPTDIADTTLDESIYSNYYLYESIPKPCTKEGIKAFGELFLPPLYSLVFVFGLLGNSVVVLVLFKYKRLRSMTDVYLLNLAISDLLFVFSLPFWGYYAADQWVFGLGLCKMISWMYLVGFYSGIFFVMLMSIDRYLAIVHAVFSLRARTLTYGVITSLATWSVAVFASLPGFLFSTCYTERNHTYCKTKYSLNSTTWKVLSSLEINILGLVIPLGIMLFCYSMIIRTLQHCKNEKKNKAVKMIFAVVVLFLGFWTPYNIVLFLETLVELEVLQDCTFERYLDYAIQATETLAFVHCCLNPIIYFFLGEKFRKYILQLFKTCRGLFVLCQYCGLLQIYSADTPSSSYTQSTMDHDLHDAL
Another assay has as its target murine CCR8 (mouse) (UniProt P56484). Nature of the assay: cell-based or functional assay.
In assay [3] the target is cynomolgus CCR8 (cynomolgus). The experiment in a line: FACS, CHO cells expressing cynomolgus CCR8, signal at saturation. Background: In flow cytometry, cells or beads pass a laser one at a time.
Chain of cynomolgus CCR8 (cynomolgus) (O97665 other isoform, or with tags, fused parts or gaps): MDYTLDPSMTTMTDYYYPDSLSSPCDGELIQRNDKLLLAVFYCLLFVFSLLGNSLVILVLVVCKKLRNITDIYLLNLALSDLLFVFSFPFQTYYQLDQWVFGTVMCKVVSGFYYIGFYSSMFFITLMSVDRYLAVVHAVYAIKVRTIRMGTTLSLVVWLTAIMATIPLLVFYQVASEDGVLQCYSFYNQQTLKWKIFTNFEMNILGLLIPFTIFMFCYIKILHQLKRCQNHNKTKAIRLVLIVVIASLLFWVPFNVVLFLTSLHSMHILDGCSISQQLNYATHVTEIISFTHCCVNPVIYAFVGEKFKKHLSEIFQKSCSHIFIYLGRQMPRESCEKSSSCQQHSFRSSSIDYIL
Assay [4] has as its target FcRn immobilized on FcRn column (Roche, Order No. 8128057001). The experiment in a line: FcRn affinity chromatography, linear pH gradient.

Some results are limits rather than exact numbers.

Chain of human CCR4 (human) (P51679 whole entry): as the sequence (P51679 whole entry) above
Chain of FcRn immobilized on FcRn column (Roche, Order No. 8128057001) (P55899 24-297, chain 1 of 2): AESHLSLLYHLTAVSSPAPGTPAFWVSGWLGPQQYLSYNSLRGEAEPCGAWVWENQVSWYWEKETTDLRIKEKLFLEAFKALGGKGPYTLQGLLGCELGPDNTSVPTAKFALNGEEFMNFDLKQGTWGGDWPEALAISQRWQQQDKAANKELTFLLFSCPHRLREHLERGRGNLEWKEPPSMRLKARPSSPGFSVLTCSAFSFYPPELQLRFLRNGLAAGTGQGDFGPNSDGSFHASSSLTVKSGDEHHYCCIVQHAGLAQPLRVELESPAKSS
Chain of FcRn immobilized on FcRn column (Roche, Order No. 8128057001) (P61769 21-119, chain 2 of 2, further chain): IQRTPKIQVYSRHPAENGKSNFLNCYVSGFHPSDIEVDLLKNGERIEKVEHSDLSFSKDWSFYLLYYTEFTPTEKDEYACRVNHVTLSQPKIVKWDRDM
Chain of Ustekinumab (antibody) (HC): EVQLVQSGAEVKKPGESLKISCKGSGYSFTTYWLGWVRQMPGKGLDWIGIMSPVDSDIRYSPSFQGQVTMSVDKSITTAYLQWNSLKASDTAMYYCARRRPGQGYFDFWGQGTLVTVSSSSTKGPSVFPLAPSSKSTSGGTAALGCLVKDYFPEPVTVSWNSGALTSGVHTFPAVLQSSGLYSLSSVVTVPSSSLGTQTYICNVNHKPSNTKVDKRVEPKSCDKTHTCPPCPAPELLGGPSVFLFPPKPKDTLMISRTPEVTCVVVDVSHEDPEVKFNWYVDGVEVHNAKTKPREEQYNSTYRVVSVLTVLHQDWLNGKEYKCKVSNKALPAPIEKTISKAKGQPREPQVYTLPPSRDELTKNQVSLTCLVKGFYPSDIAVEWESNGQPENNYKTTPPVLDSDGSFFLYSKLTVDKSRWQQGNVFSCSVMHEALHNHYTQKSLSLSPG
Chain of Ustekinumab (antibody) (LC): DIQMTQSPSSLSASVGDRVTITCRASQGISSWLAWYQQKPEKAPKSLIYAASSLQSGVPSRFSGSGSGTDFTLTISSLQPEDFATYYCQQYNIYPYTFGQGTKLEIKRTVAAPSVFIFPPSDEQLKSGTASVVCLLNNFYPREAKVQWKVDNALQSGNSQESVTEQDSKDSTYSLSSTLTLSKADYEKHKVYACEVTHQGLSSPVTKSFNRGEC
Chain of murine CCR8 (mouse) (P56484 whole entry): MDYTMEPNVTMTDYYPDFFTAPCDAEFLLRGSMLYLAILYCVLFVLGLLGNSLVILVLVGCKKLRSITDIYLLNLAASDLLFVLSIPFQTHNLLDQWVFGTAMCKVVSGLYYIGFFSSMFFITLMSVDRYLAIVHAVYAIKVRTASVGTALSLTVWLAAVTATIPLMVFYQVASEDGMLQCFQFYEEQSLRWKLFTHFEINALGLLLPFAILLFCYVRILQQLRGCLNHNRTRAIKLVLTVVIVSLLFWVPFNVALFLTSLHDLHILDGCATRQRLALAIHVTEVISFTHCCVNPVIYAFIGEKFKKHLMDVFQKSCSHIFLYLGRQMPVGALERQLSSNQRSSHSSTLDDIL

Regarding L263G8 (antibody), in the assay with human CCR8 (human), the Ca flux assay IC50 (nM), block of signaling induced by CCL1 at 60 ng/ml; CHO cells expressing human CCR8 amounted to 1.26 nM; the Ca flux assay Span ratio (from max to min), block of signaling induced by CCL1 at 60 ng/ml; CHO cells expressing human CCR8 was found to be 921; the Internalization [fold isotype], HuT78 cells, BODIPY FL-labelled antibody turned out to be 22 fold isotype. Further, in assay [1], the IC50 in nM for inhibition of CCL1 induced β-arrestin signaling (DiscoverX assay), CHO with hCCR8 came out at 13.8 nM.

In the assay with human CCR4 (human), Mogamulizumab (antibody) registered an ADCC Max Response (%); activated human Tregs (Donor 1100) as target cells, NK92v effector cells of 96%; an ADCC Max Response (%); activated human Tregs (Donor 1100), NK92v effector cells of 74%; an ADCC Max Response (%); activated human Tregs (Donor 1261), NK92v effector cells of 71%; an ADCC hTreg EC50 (pM); activated human Tregs (Donor 1100) as target cells, NK92v effector cells of 35.2 pM. In addition, in the assay with human CCR4 (human), the ADCC hTreg EC50 (pM); activated human Tregs (Donor 1100), NK92v effector cells came out at 193 pM and the ADCC hTreg EC50 (pM); activated human Tregs (Donor 1261), NK92v effector cells turned out to be 86.4 pM. Besides, in assay [2], the ADCC EC50, activated Tregs + NK92v, Donor 1213 was found to be 0.31 nM; the ADCC EC50, activated Tregs + NK92v, Donor 1730 came to 1.09 nM; the ADCC Max Response, activated Tregs + NK92v, Donor 1213 turned out to be 58%; the ADCC Max Response, activated Tregs + NK92v, Donor 1730 was 65%.

In the assay with murine CCR8 (mouse), SA214G2 (antibody) yielded an Internalization [fold isotype], mBW5147.3 cells, BODIPY FL-labelled antibody of 11 fold isotype.

Take L263G8 (Biolegend) (antibody): the MFI in assay [3] was under 1000.

As to “CCL1 (human) (from UniProt P22362 24-96) (ligand)”, the EC80 of β-arrestin signaling (DiscoverX assay) in assay [1] amounted to 0.02 µg/mL.

As for Ustekinumab (antibody), in assay [4], the pH at Elution was 7.22 pH.

In turn, Briakinumab (antibody) yielded a pH at Elution in assay [4] of 7.85 pH.
